Measurements published in article PMC3979344 (Virology, 2013).

B1: gD(285t) (domain or fragment)
chain: KYALADASLKMADPNRFRGKDLPVLDQLTDPPGVRRVYHIQAGLPDPFQPPSLPITVYYAVLERACRSVLLNAPSEAPQIVRGASEDVRKQPYNLTIAWFRMGGNCAIPITVMEYTECSYNKSLGACPIRTQPRWNYYDSFSAVSEDNLGFLMHAPAFETAGTYLRLVKINDWTEITQFILEHRAKGSCKYALPLRIPPSACLSPQAYQQGVTVDSIGMLPRFIPENQRTVAVYSLKIAGWHGPKAPYTSTLLPPELSETPNATQPELAPEDPEDSALLEDPVGT
B2: gD(306t), soluble ectodomain of HSV-1 glycoprotein D (domain or fragment)
chain: KYALADASLKMADPNRFRGKDLPVLDQLTDPPGVRRVYHIQAGLPDPFQPPSLPITVYYAVLERACRSVLLNAPSEAPQIVRGASEDVRKQPYNLTIAWFRMGGNCAIPITVMEYTECSYNKSLGACPIRTQPRWNYYDSFSAVSEDNLGFLMHAPAFETAGTYLRLVKINDWTEITQFILEHRAKGSCKYALPLRIPPSACLSPQAYQQGVTVDSIGMLPRFIPENQRTVAVYSLKIAGWHGPKAPYTSTLLPPELSETPNATQPELAPEDPEDSALLEDPVGTVAPQIPPNWHIPSIQDAATPY
B3: gD(23-285t) (domain or fragment)
chain: PVLDQLTDPPGVRRVYHIQAGLPDPFQPPSLPITVYYAVLERACRSVLLNAPSEAPQIVRGASEDVRKQPYNLTIAWFRMGGNCAIPITVMEYTECSYNKSLGACPIRTQPRWNYYDSFSAVSEDNLGFLMHAPAFETAGTYLRLVKINDWTEITQFILEHRAKGSCKYALPLRIPPSACLSPQAYQQGVTVDSIGMLPRFIPENQRTVAVYSLKIAGWHGPKAPYTSTLLPPELSETPNATQPELAPEDPEDSALLEDPVGT

How the values were obtained:
[1] = target: HVEM(200t), soluble herpesvirus entry mediator (UniProt Q92956); test: SPR
[2] = target: T1, nectin-1(346t), soluble nectin-1 (UniProt Q15223 31-346); test: SPR
T1 sequence (looked up): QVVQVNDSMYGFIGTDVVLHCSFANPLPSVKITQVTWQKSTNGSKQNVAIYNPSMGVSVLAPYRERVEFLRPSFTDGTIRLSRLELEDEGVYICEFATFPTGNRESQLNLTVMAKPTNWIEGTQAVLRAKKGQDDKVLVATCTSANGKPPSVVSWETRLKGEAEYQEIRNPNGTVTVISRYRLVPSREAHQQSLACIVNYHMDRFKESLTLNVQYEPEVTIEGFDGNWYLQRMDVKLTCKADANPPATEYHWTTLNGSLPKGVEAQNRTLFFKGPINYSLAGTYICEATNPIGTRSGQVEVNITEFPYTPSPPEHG

Molecule	Kd [1]	Kd [2]
gD(3C-38C)306t (from UniProt Q69091 26-331) (domain or fragment)	2390 nM	
B1		71.3 nM
B2		1740 nM
B3		65.7 nM
